From patent US8209131B2, “Therapeutic heparins and their binding to interleukins 4 and 5 and PECAM-1” (Curtin University of Technology, priority 2004, dated 2012)
Where a chain is given by its changes, count along the chain named. Numbers in names are those of the source.

B1: R85A: IL-4 mutant, baculovirus expressed (protein)
chain: HKCDITLQEIIKTLNSLTEQKTLCTELTVTDIFAASKNTTEKETFCRAATVLRQFYSHHEKDTRCLGATAQQFHRHKQLIRFLKALDRNLWGLAGLNSCPVKEANQSTLENFLERLKTIMREKYSKCSS
B2: E9A: IL-4 mutant, baculovirus expressed (protein)
chain: B1 chain with E9A, A85R
B3: K77A/K84A: IL-4 double mutant (protein)
chain: B1 chain with K77A, K84A, A85R
B4: K12A: IL-4 mutant, baculovirus expressed (protein)
chain: B1 chain with K12A, A85R
B5: K84A: IL-4 mutant, baculovirus expressed (protein)
chain: B1 chain with K84A, A85R
B6: R121A: IL-4 mutant, baculovirus expressed (protein)
chain: B1 chain with A85R, R121A
B7: R53A: IL-4 mutant, baculovirus expressed (protein)
chain: B1 chain with R53A, A85R
B8: K77A/R53A: IL-4 double mutant (protein)
chain: B1 chain with R53A, K77A, A85R
B9: R75A: IL-4 mutant, baculovirus expressed (protein)
chain: B1 chain with R75A, A85R
B10: H74A: IL-4 mutant, baculovirus expressed (protein, UniProt P05112 25-153, looked up, variant H74A)
Interleukin-4: B1 chain with H74A, A85R
B11: K42A: IL-4 mutant, baculovirus expressed (protein)
chain: B1 chain with K42A, A85R
B12: K77A/R85A: IL-4 double mutant (protein, UniProt P05112 25-153, looked up, variant K77A R85A)
Interleukin-4: B1 chain with K77A
B13: K77A/R81A: IL-4 double mutant (protein)
chain: B1 chain with K77A, R81A, A85R
B14: R81A: IL-4 mutant, baculovirus expressed (protein)
chain: B1 chain with R81A, A85R
B15: K77A: IL-4 mutant, baculovirus expressed (protein)
chain: B1 chain with K77A, A85R
B16: E60A: IL-4 mutant, baculovirus expressed (protein)
chain: B1 chain with E60A, A85R
B17: K77A/K12A: IL-4 double mutant (protein, UniProt P05112 25-153, looked up, variant K77A K12A)
Interleukin-4: B1 chain with K12A, K77A, A85R
B18: D87A: IL-4 mutant, baculovirus expressed (protein, UniProt P05112 25-153, looked up, variant D87A)
Interleukin-4: B1 chain with A85R, D87A
B19: K77A/R88V: IL-4 double mutant (protein, UniProt P05112 25-153, looked up, variant K77A R88V)
Interleukin-4: B1 chain with K77A, A85R, R88V
B20: βc: IL-3, IL-5 and GM-CSF common receptor β extracellular domain fused to flag tag (protein, UniProt P32927 17-443, looked up)
extracellular domain: WERSLAGAEETIPLQTLRCYNDYTSHITCRWADTQDAQRLVNVTLIRRVNEDLLEPVSCDLSDDMPWSACPHPRCVPRRCVIPCQSFVVTDVDYFSFQPDRPLGTRLTVTLTQHVQPPEPRDLQISTDQDHFLLTWSVALGSPQSHWLSPGDLEFEVVYKRLQDSWEDAAILLSNTSQATLGPEHLMPSSTYVARVRTRLAPGSRLSGRPSKWSPEVCWDSQPGDEAQPQNLECFFDGAAVLSCSWEVRKEVASSVSFGLFYKPSPDAGEEECSPVLREGLGSLHTRHHCQIPVPDPATHGQYIVSVQPRRAEKHIKSSVNIQMAPPSLNVTKDGDSYSLRWETMKMRYEHIDHTFEIQYRKDTATWKDSKTETLQNAHSMALPALEPSTRYWARVRVRTSRTGYNGIWSEWSEARSWDTESVLPMW
modifications: extracellular domain Flag tag
notes: IL-3, IL-5 and GM-CSF common receptor β extracellular domain fused to flag tag

System: not listed separately
Assay: BIAcore binding of proteins to heparin immobilised on a biosensor chip
Conditions: not given
Description: This technology uses the optical phenomenon of surface plasmon resonance to monitor physical interactions between molecules. Passing the protein solution over a sensor surface to which the ligand is coupled monitors the real-time binding of proteins to an immobilized ligand. Detection is achieved by measuring refractive index changes very close to the sensor surface. When the refractive index is altered, the angle at which plasmon resonance occurs changes and this change directly correlates with the amount of protein interacting with the surface. A BIAcore 2000 is conveniently used. It is very sensitive and its microfluidics ensures that only small amounts of material are required.
The HLGAGs are immobilized on the biosensor chip. Intact HLGAGs are biotinylated via amino groups, or reducing termini modified with ammonia by reductive amination, using sulfo-NHS-biotin. Biotinylated HLGAGs are immobilized on streptavidin-coupled sensor chips. Solutions containing proteins of interest are injected over the sensor chip surface, and the binding is measured in real time (Fernig, In: Proteoglycan protocols, Ed. R.V. Iozzo, Humana Press, Totowa, N.J., USA, 2001). […] In all cases binding is specific, as there is little or no interaction with sensor chips lacking heparin with any of the targeted proteins, and binding is inhibited by exogenous heparin. Initial analyzes indicate that the binding of rhIL-5 to heparin has affinity constants of the order from 50-5×10^−9. Because unsubstituted amines are variably present in heparan sulfates from different tissues, an alternative method of biotin labeling is recommended for the heparan sulfate chip. In this case, heparan sulfate is labeled via oxidized cis-diol residues using biotinyl-LC-hydrazine. […]
Binding experiments with these proteins has indicated to which PECAM-1 domains heparin binds. Two binding assays were used: the assay where PECAM-1 is reacted with a BIAcore biosensor chip to which heparin has been immobilised and the second assay is the binding of PECAM-1 to heparan sulfate on the cell surface.
Site directed mutagenesis was performed on IL-4. Basic residues within the proposed heparin binding site were changed to alanine and the proteins expressed using the baculovirus expression system. The one exception was R88 which was changed to valine. Insect cell expressed proteins were purified on an anti-IL-4 affinity column and checked for purity by SDS-PAGE and silver staining. Mutant IL-4 proteins were examined for their ability to bind heparin immobilised on a biosensor chip and binding assessed using a BIAcore 2000.

| Molecule | heparin binding of IL-4 mutant relative to wild type |
| --- | --- |
| B1 | stronger binding than the wild type |

Same assay, conditions: IL-4 WT and mutants binding to heparin; in M-1s-1 (unit assumed)

| Molecule | ka |
| --- | --- |
| B1 | 1.04E+05 |
| B2 | 1.72E+05 |
| B3 | 1.26E+04 |
| B4 | 5.03E+04 |
| B5 | 3.06E+04 |
| B6 | 5.13E+04 |
| B7 | 5.83E+04 |
| B8 | 1.79E+04 |
| B9 | 3.32E+04 |
| B10 | 2.05E+04 |
| B11 | 4.63E+04 |
| B12 | 1.51E+04 |
| B13 | 9.82E+03 |
| B14 | 2.43E+04 |
| B15 | 6.42E+03 |
| B16 | 8.44E+04 |
| B17 | 1.65E+04 |
| B18 | 4.42E+04 |
| B19 | 1.36E+04 |

Same assay, conditions: IL-4 WT and mutants binding to heparin; in s-1 (unit assumed)

| Molecule | kd |
| --- | --- |
| B1 | 2.42E−03 |
| B2 | 8.45E−03 |
| B3 | 2.23E−03 |
| B4 | 3.95E−03 |
| B5 | 2.57E−03 |
| B6 | 2.13E−03 |
| B7 | 5.40E−03 |
| B8 | 3.08E−03 |
| B9 | 3.63E−03 |
| B10 | 6.37E−04 |
| B11 | 2.50E−03 |
| B12 | 1.78E−03 |
| B13 | 1.55E−03 |
| B14 | 2.37E−03 |
| B15 | 2.24E−03 |
| B16 | 2.76E−03 |
| B17 | 3.44E−03 |
| B18 | 1.59E−03 |
| B19 | 1.94E−03 |

Same assay, conditions: IL-4 WT and mutants binding to heparin; read-out: KD

| Molecule | Kd [nM] |
| --- | --- |
| B1 | 23.4 |
| B2 | 49.3 |
| B3 | 176 |
| B4 | 78.5 |
| B5 | 83.9 |
| B6 | 41.5 |
| B7 | 92.5 |
| B8 | 172 |
| B9 | 109 |
| B10 | 31.1 |
| B11 | 53.9 |
| B12 | 117 |
| B13 | 158 |
| B14 | 97.8 |
| B15 | 349 |
| B16 | 32.7 |
| B17 | 209 |
| B18 | 36 |
| B19 | 142 |

Same assay, conditions: recombinant proteins, FIG. 2

| Molecule | binding to immobilized heparin |
| --- | --- |
| B20 | binds to heparin |

System: TF1.8 cells
Assay: TF1.8 bioassay of IL-4 mutants (support of proliferation)
Type: cell-based, human
Conditions: IL-4 wt and mutants, TF1.8 cells
Method: TF-1.8 cells have been transfected with the firefly luciferase gene contained in the expression vector, pPGK-puromycin-luciferase (Coombe et al., 1998, Supra). The positive transfectants are cloned to produce a line with good luciferase expression. The proliferation assays are carried out in 96-well microplates suitable for such assays Falcon). The wells are flat bottomed, with white sides and a clear bottom. Cells are washed to remove any cytokine in the growth medium and then resuspended in RPMI/5% w/v FCS. The cells are counted with a Coulter Multisizer (Coulter Electronics, England) and routinely 2.5×10^4 cells are added to microplate wells that contain either no IL-4 (negative control) or various dilutions of IL-4. When the effect of HLGAGs, chondroitin sulfate C, or the heparin fractions of a particular length, or heparin fragments of a particular length and structure is to be measured, the wells also contain various concentrations of these molecules.
The cells proliferate for 48 hours at 37° C. in a humidified atmosphere, after which the luciferase activity is measured by the addition of 50 μl of luciferase substrate buffer (50 mm Tris-HCl, pH 7.8, 15 mM MgSO4, 33.3 mM DTT, 0.1 mM EDTA, 0.5 mM Na-luciferin, 0.5 mM ATP, 0.25 mM lithium Co A and 0.5% v/v Triton X-100). Immediately after the addition of the luciferase buffer the plate is assayed for luciferase activity. Light emissions are detected on a Victor 1420 Multilabel counter (Wallac, Turku, Finland).
IL-4 mutants were compared with WT for their ability to support the proliferation of TF1.8 cells. Titration curves were performed for each of the mutants and the concentration needed to support 50% of cell growth was determined.

| Molecule | Conc needed for 50% growth, average [ng/mL] |
| --- | --- |
| B1 | 0.71 |
| B2 | 76.1 |
| B3 | 1.69 |
| B4 | 0.6 |
| B5 | 2.95 |
| B6 | 1.01 |
| B7 | 9.39 |
| B8 | 11.3 |
| B9 | 0.63 |
| B11 | 0.67 |
| B13 | 1.65 |
| B14 | 4.85 |
| B15 | 1.55 |

Same assay, conditions: compared with WT

| Molecule | proliferative activity of IL-4 mutants |
| --- | --- |
| B2 | markedly decreased proliferative activity |
| B5 | slightly decreased proliferative activity |
| B7 | slightly decreased proliferative activity |
| B14 | slightly decreased proliferative activity |
